Data taken from patent US20260250410A1 (SICHUAN HUIYU PHARMACEUTICAL, published 2026).

T1: HuCDCP1-C (human, UniProt Q9H5V8 30-667)
T1 construct: range 30-667; expressed in HEK-293T, purified by Fc/his tag; also called human CDCP1-C; full-length extracellular domain of human CDCP1; not shown: Fc or his tag
T1 sequence (looked up): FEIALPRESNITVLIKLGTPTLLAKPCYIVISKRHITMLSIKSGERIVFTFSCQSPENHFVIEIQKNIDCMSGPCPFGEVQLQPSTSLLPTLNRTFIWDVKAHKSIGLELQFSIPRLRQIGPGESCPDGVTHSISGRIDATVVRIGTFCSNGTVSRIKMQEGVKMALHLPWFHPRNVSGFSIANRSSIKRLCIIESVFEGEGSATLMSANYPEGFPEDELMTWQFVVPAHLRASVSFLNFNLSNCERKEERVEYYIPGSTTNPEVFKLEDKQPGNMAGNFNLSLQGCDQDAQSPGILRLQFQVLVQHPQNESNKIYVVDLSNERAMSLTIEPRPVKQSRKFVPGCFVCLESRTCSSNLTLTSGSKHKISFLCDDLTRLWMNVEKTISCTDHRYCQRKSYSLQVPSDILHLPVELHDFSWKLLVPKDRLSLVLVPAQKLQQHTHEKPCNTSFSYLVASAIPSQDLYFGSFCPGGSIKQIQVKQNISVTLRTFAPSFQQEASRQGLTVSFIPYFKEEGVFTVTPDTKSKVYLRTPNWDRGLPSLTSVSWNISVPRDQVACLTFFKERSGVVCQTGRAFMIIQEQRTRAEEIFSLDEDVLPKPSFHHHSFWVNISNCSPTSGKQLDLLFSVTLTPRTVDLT


molecular target: T1, HuCDCP1-C; test: SPR (Caterra), antigen immobilized
Experimental: The humanized anti-CDCP1 antibodies obtained from Example 11 were subjected to gene cloning, constructed into pTT5 expression vector for a small amount of expression in CHO cells (Expi-CHOS: Gibco A29127), and purified with an Fc affinity column (AT Protein A Diamond Plus. No. AA402312). Antibody purity was analyzed by HPLC and determined by Nanodrop. High-throughput affinity assay was carried out for a small amount of antibodies by Caterra.

Kd | koff | kon | Binder
6.78 nM | 0.00143 s⁻¹ | 211000 M⁻¹ s⁻¹ | 1CP-126 (antibody, human IgG1, kappa, V domains shown, humanized 3C11, human IgG1 kappa) VH: QVQLVQSGAEVKKPGASVKVSCKASGYNFISYWLHWVRQAPGQGLEWMGGIYPGNTDTTYNQKFKGRVTMTADTSTSTAYMELSSLRSEDTAVYYCIRYDYDRGMDYWGQGTLVTVSS VL: DIQMTQSPSSLSASVGDRVTITCRASEDIYYRLAWYQQKPGKAPKLLISGATALETGVPSRFSGSGSGKDYTFTISSLQPEDIATYYCQHYWNIPWTFGQGTKVEIKR
9.66 nM | 0.00198 s⁻¹ | 205000 M⁻¹ s⁻¹ | 1CP-127 (antibody, human IgG1, kappa, V domains shown, humanized 3C11, human IgG1 kappa) VH: QVQLVQSGAEVKKPGASVKVSCKASGYNFISYWLHWVRQAPGQGLEWMGGIYPGNTDTTYNQKFKGRVTVTAVTSTSTVYMELSSLRSEDTAVYYCIRYDYDRGMDYWGQGTLVTVSS VL: DIQMTQSPSSLSASVGDRVTITCRASEDIYYRLAWYQQKPGKAPKLLISGATALETGVPSRFSGSGSGKDYTFTISSLQPEDIATYYCQHYWNIPWTFGQGTKVEIKR
≤ 0.0713 nM | ≤ 1e-05 s⁻¹ | 140000 M⁻¹ s⁻¹ | 1CP-132 (antibody, human IgG1, kappa, V domains shown, humanized 3C11, human IgG1 kappa) VH: QVQLVQSGAEVKKPGASVKVSCKASGYNFISYWLHWVRQAPGQGLEWMGGIYPGNTDTTYNQKFKGRVTMTRDTSTSTVYMELSSLRSEDTAVYYCIRYDYDRGMDYWGQGTLVTVSS VL: DIQMTQSPSSLSASVGDRVTITCRASEDIYYRLAWYQQKPGNAPKLLISGATALETGVPSRFSGSGSGKDYTLTISSLQPEDIATYYCQHYWNIPWTFGQGTKVEIKR
≤ 0.0546 nM | ≤ 1e-05 s⁻¹ | 183000 M⁻¹ s⁻¹ | 1CP-133 (antibody, human IgG1, kappa, V domains shown, humanized 3C11, human IgG1 kappa) VH: QVQLVQSGAEVKKPGASVKVSCKASGYNFISYWLHWVRQAPGQGLEWMGGIYPGNTDTTYNQKFKGRVTMTADTSTSTVYMELSSLRSEDTAVYYCIRYDYDRGMDYWGQGTLVTVSS VL: DIQMTQSPSSLSASVGDRVTITCRASEDIYYRLAWYQQKPGNAPKLLISGATALETGVPSRFSGSGSGKDYTLTISSLQPEDIATYYCQHYWNIPWTFGQGTKVEIKR
10.5 nM | 0.002 s⁻¹ | 191000 M⁻¹ s⁻¹ | 1CP-131 (antibody, human IgG1, kappa, V domains shown, humanized 3C11, human IgG1 kappa) VH: QVQLVQSGAEVKKPGASVKVSCKASGYNFISYWLHWVRQAPGQGLEWMGGIYPGNTDTTYNQKFKGRVTVTAVTSTSTVYMELSSLRSEDTAVYYCIRYDYDRGMDYWGQGTLVTVSS VL: DIQMTQSPSSLSASVGDRVTITCRASEDIYYRLAWYQQKPGKAPKLLISGATALETGVPSRFSGSGSGKDYTLTISSLQPEDIATYYCQHYWNIPWTFGQGTKVEIKR
0.368 nM | 5e-05 s⁻¹ | 136000 M⁻¹ s⁻¹ | 1CP-112 (antibody, human IgG1, kappa, V domains shown, humanized 8E5, human IgG1 kappa) VH: QVQLVQSGSELKKPGASVKVSCKASGYTLTDFSMHWVRQAPGQGLEWMGWINTETGAPTYADDFKGRFVFSLDTSVSTAYLQISSLKAEDTAVYYCSRGRDYDPHFDYWGQGTLVTVSS VL: EIVLTQSPATLSLSPGERATLSCRASQSISDFLHWYQQKPGQAPRLLIKYASQSISGIPARFSGSGPGSDFTLTISSVEPEDFAVYYCQSAHSFPYTFGQGTKLEIKR
11.4 nM | 0.00227 s⁻¹ | 199000 M⁻¹ s⁻¹ | 1CP-123 (antibody, human IgG1, kappa, V domains shown, humanized 8E5, human IgG1 kappa) VH: QVQLQQSGSELKKPGESVKLSCKASGYTLTDFSMHWVRQAPGQGLKWMGWINTETGAPTYADDFKGRFVFSLDTSVSMAYLQISSLKSEDTAVYYCSRGRDYDPHFDYWGQGTLVTVSS VL: EIVLTQSPATLSLSPGERATLSCRASQSISDFLHWYQQKSGQSPRLLIKYASQSISGIPARFSGSGSGSDFTLTISSVEPEDFAVYYCQSAHSFPYTFGQGTKLEIKR
0.359 nM | 4.59e-05 s⁻¹ | 128000 M⁻¹ s⁻¹ | 1CP-116 (antibody, human IgG1, kappa, V domains shown, humanized 8E5, human IgG1 kappa) VH: QVQLVQSGSELKKPGASVKVSCKASGYTLTDFSMHWVRQAPGQGLEWMGWINTETGAPTYADDFKGRFVFSLDTSVSTAYLQISSLKAEDTAVYYCSRGRDYDPHFDYWGQGTLVTVSS VL: EIVLTQSPATLSLSPGERATLSCRASQSISDFLHWYQQKPGQSPRLLIKYASQSISGIPARFSGSGSGSDFTLTISSVEPEDFAVYYCQSAHSFPYTFGQGTKLEIKR
12.5 nM | 0.00209 s⁻¹ | 167000 M⁻¹ s⁻¹ | 1CP-122 (antibody, human IgG1, kappa, V domains shown, humanized 8E5, human IgG1 kappa) VH: QVQLVQSGSELKKPGESVKVSCKASGYTLTDFSMHWVRQAPGQGLEWMGWINTETGAPTYADDFKGRFVLSLDTSVSTAYLQISSLKSEDTAVYYCSRGRDYDPHFDYWGQGTLVTVSS VL: EIVLTQSPATLSLSPGERATLSCRASQSISDFLHWYQQKSGQSPRLLIKYASQSISGIPARFSGSGSGSDFTLTISSVEPEDFAVYYCQSAHSFPYTFGQGTKLEIKR
0.122 nM | 1.7e-05 s⁻¹ | 139000 M⁻¹ s⁻¹ | 1CP-120 (antibody, human IgG1, kappa, V domains shown, humanized 8E5, human IgG1 kappa) VH: QVQLVQSGSELKKPGASVKVSCKASGYTLTDFSMHWVRQAPGQGLEWMGWINTETGAPTYADDFKGRFVFSLDTSVSTAYLQISSLKAEDTAVYYCSRGRDYDPHFDYWGQGTLVTVSS VL: EIVLTQSPATLSLSPGERATLSCRASQSISDFLHWYQQKSGQSPRLLIKYASQSISGIPARFSGSGSGSDFTLTISSVEPEDFAVYYCQSAHSFPYTFGQGTKLEIKR
5.51 nM | 0.00124 s⁻¹ | 226000 M⁻¹ s⁻¹ | 1CP-119 (antibody, human IgG1, kappa, V domains shown, humanized 8E5, human IgG1 kappa) VH: QVQLQQSGSELKKPGESVKLSCKASGYTLTDFSMHWVRQAPGQGLKWMGWINTETGAPTYADDFKGRFVFSLDTSVSMAYLQISSLKSEDTAVYYCSRGRDYDPHFDYWGQGTLVTVSS VL: EIVLTQSPATLSLSPGERATLSCRASQSISDFLHWYQQKPGQSPRLLIKYASQSISGIPARFSGSGSGSDFTLTISSVEPEDFAVYYCQSAHSFPYTFGQGTKLEIKR
15.2 nM | 0.00246 s⁻¹ | 161000 M⁻¹ s⁻¹ | 1CP-114 (antibody, human IgG1, kappa, V domains shown, humanized 8E5, human IgG1 kappa) VH: QVQLVQSGSELKKPGESVKVSCKASGYTLTDFSMHWVRQAPGQGLEWMGWINTETGAPTYADDFKGRFVLSLDTSVSTAYLQISSLKSEDTAVYYCSRGRDYDPHFDYWGQGTLVTVSS VL: EIVLTQSPATLSLSPGERATLSCRASQSISDFLHWYQQKPGQAPRLLIKYASQSISGIPARFSGSGPGSDFTLTISSVEPEDFAVYYCQSAHSFPYTFGQGTKLEIKR
13.4 nM | 0.00225 s⁻¹ | 168000 M⁻¹ s⁻¹ | 1CP-118 (antibody, human IgG1, kappa, V domains shown, humanized 8E5, human IgG1 kappa) VH: QVQLVQSGSELKKPGESVKVSCKASGYTLTDFSMHWVRQAPGQGLEWMGWINTETGAPTYADDFKGRFVLSLDTSVSTAYLQISSLKSEDTAVYYCSRGRDYDPHFDYWGQGTLVTVSS VL: EIVLTQSPATLSLSPGERATLSCRASQSISDFLHWYQQKPGQSPRLLIKYASQSISGIPARFSGSGSGSDFTLTISSVEPEDFAVYYCQSAHSFPYTFGQGTKLEIKR
0.411 nM | 5.9e-05 s⁻¹ | 143000 M⁻¹ s⁻¹ | 1CP-113 (antibody, human IgG1, kappa, V domains shown, humanized 8E5, human IgG1 kappa) VH: QVQLVQSGSELKKPGASVKVSCKASGYTLTDFSMHWVRQAPGQGLEWMGWINTETGAPTYADDFKGRFVLSLDTSVSTAYLQISSLKAEDTAVYYCSRGRDYDPHFDYWGQGTLVTVSS VL: EIVLTQSPATLSLSPGERATLSCRASQSISDFLHWYQQKPGQAPRLLIKYASQSISGIPARFSGSGPGSDFTLTISSVEPEDFAVYYCQSAHSFPYTFGQGTKLEIKR
